Test results as given in US12710427B2, “Anti-human neurotensin receptor 1 antibody and use thereof” (National Health Research Institutes, priority 2020, dated 2026).

B1: 7C3: anti-human NTSR1 antibody with VH SEQ ID NO: 1 and VL SEQ ID NO: 2, full-length IgG with human IgG1 constant domains (antibody, V domains shown)
VH: QVQLQQPGSVLVRPGASVKLSCKASGYTFTSSWIHWAKQRPGQGLEWIGQIRPNSGNTYYNEKFKVKATLTVDTSSSTAYVDLSSLTSEDSAVYYCARYYYGFDYWGQGTLVTVSS
VL: DVLMTQTPLSLPVSLGDQASISCRSSQSIVHSNGNTYLEWYLQKPGQSPKLLIYKVSNRFSGVPDRFSGSGSGTDFTLKISRVEAEDLGVYYCFQGSHLPWTFGGGTKLEIKR
modifications: human IgG1 constant domains; VH SEQUENCE; VL SEQUENCE
B2: L99A: h7C3-1 variant, L99A in CDR L3 (antibody, V domains shown)
VH: QVQLQQPGSVLVRPGASVKLSCKASGYTFTSSWIHWAKQRPGQGLEWIGQIRPNSGNTYYNEKFKVKATLTVDTSSSTAYVDLSSLTSEDSAVYYCARYHYGFDYWGQGTLVTVSS
VL: DVLMTQTPLSLPVSLGDQASISCRSSQSIVHSNGNTYLEWYLQKPGQSPKLLIYKVSNRFSGVPDRFSGSGSGTDFTLKISRVEAEDLGVYYCFQGSHAPWTFGGGTKLEIKR
B3: Y105A: h7C3 variant, Y105A in CDR H3 (antibody, V domains shown)
VH: QVQLQQPGSVLVRPGASVKLSCKASGYTFTSSWIHWAKQRPGQGLEWIGQIRPNSGNTYYNEKFKVKATLTVDTSSSTAYVDLSSLTSEDSAVYYCARYYYGFDAWGQGTLVTVSS
VL: DVLMTQTPLSLPVSLGDQASISCRSSQSIVHSNGNTYLEWYLQKPGQSPKLLIYKVSNRFSGVPDRFSGSGSGTDFTLKISRVEAEDLGVYYCFQGSHLPWTFGGGTKLEIKR
B4: D104A: h7C3 variant, D104A in CDR H3 (antibody, V domains shown)
VH: QVQLQQPGSVLVRPGASVKLSCKASGYTFTSSWIHWAKQRPGQGLEWIGQIRPNSGNTYYNEKFKVKATLTVDTSSSTAYVDLSSLTSEDSAVYYCARYYYGFAYWGQGTLVTVSS
VL: DVLMTQTPLSLPVSLGDQASISCRSSQSIVHSNGNTYLEWYLQKPGQSPKLLIYKVSNRFSGVPDRFSGSGSGTDFTLKISRVEAEDLGVYYCFQGSHLPWTFGGGTKLEIKR
B5: N54A: h7C3-2 variant, N54A in CDR H2 (antibody, V domains shown)
VH: QVQLQQPGSVLVRPGASVKLSCKASGYTFTSSWIHWAKQRPGQGLEWIGQIRPASGNTYYNEKFKVKATLTVDTSSSTAYVDLSSLTSEDSAVYYCARYHYGFDYWGQGTLVTVSS
VL: DVLMTQTPLSLPVSLGDQASISCRSSQSIVHSNGNTYLEWYLQKPGQSPKLLIYKVSNRFSGVPDRFSGSGSGTDFTLKISRVEAEDLGVYYCFQGAHLPWTFGGGTKLEIKR
B6: h7C3-1: 7C3 variant bearing Y100H mutation in CDR H3 (antibody, V domains shown)
VH: QVQLQQPGSVLVRPGASVKLSCKASGYTFTSSWIHWAKQRPGQGLEWIGQIRPNSGNTYYNEKFKVKATLTVDTSSSTAYVDLSSLTSEDSAVYYCARYHYGFDYWGQGTLVTVSS
VL: DVLMTQTPLSLPVSLGDQASISCRSSQSIVHSNGNTYLEWYLQKPGQSPKLLIYKVSNRFSGVPDRFSGSGSGTDFTLKISRVEAEDLGVYYCFQGSHLPWTFGGGTKLEIKR

Key:
NTSR1 on A549 cells = molecular target: T1, NTSR1 on A549 cells (Homo sapiens, UniProt P30989); assay: Flow cytometry (FACS) binding of anti-NTSR1 antibodies on A549 cells; settings: for FACS binding (%, 1 μg/ml) / FACS binding (%, 10 μg/ml): A549 cells; for FACS binding (%, 1 μg/ml): antibody 1 μg/ml; for FACS binding (%, 10 μg/ml): antibody 10 μg/ml; for EC50: relative mean fluorescence intensity (MFI) on A549 cells
T1 construct: endogenous in cells; host or cells: A549 (NSCLC)
Protocol: A total of 1×10^6 cells were reacted with an anti-NTSR1 antibody in 100 μL of FACS buffer (PBS containing 0.5% BSA) for 60 minutes at 4° C. and washed two times to remove excess antibody. Secondary FITC (BD Pharmingen™) conjugated mouse anti-human IgG antibodies were incubated for an additional 60 minutes on ice. Cells were washed again and followed by an additional incubation with 1 ml PBS containing 0.5 mg/mL propidium iodide at 4° C. for 10 minutes. Data were collected on 10,000 living cells by FACS (Bio-Red S3e cell sorter). Fluorescence intensity from channel FL-1 was calculated with Flow Jo flow […] cytometry analysis software.

[1] = system: cyclic ECL2 peptide of NTSR1; assay: NTSR1-binding affinity ELISA (alanine scanning variants); parameters: species or system human; settings: for effect on h7C3 affinity (in words): compared with parental h7C3
Protocol: The NTSR1-binding capacity of different antibodies were measured by ELISA. Briefly, NeutrAvidin 96-well plates (Pierce Cat:15128) were coated with cyL2-Biotin peptides at a final concentration of 5 μg/ml at […]. On the following day, the coating solution was removed, and the plates were blocked with 5% (v/v) non-fat dry milk in phosphate buffer saline (PBS) for 1 hour. After washing with PBST, gradient concentrations of anti-NTSR1 antibodies were added in triplicate. After 1 hour of incubation, the plate was washed three times with PBST, followed by the addition of horseradish peroxidase (HRP)-conjugated goat anti-human IgG Fc antibody (100 μL) into each well for an additional hour at RT. Finally, 100 μL of tetramethylbenzidine (TMB) substrate was added into each well to produce color for visualization. After 2 minutes of incubation, 100 μL of 2M H2SO4 was used to stop the reaction. The absorbance of each well was read at 450 nm with a plate reader. Flow cytometry

cyclic ECL2 peptide of NTSR1, sequence (P30989 206-234 limits assumed): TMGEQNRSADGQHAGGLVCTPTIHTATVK
T1 sequence (P30989 whole entry): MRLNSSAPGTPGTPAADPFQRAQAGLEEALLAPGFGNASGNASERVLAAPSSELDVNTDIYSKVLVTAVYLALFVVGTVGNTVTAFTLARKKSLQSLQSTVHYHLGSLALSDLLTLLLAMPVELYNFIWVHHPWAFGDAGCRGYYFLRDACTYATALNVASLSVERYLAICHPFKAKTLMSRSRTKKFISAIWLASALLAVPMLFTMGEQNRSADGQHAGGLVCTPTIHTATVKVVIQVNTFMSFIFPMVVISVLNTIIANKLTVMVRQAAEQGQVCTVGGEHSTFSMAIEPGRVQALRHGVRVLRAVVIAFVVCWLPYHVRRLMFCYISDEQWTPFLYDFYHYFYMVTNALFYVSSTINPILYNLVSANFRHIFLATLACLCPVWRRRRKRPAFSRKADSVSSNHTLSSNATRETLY

Molecule | FACS binding (%, 1 μg/ml) (NTSR1 on A549 cells) [%] | FACS binding (%, 10 μg/ml) (NTSR1 on A549 cells) [%] | EC50 (NTSR1 on A549 cells) [µg/mL] | effect on h7C3 affinity (in words) [1] | also measured
B1 | 16.8 | 83.2 | 11.3 ± 2.8 |  | binding to A549 cells (NTSR1 on A549 cells; 10 μg/ml, flow cytometry): strong binding
B2 |  |  |  |  | decrease of h7C3-1 affinity ([1]; alanine scanning of CDR L3 of h7C3-1): 70%
B3 |  |  |  | no effect | 
B4 |  |  |  | no effect | 
B5 |  |  |  |  | binding affinity to peptide compared with h7C3-2 (in words) ([1]; h7C3-2 variants): higher binding affinity
B6 | 41 | 93.1 | 7.6 ± 1.7 | higher affinity | 
